What was measured:
[1] = target: TIGIT-expressing CHO-K1 cells (UniProt Q495A1); assay: flow cytometry
[2] = target: CD47-expressing CHO-K1 cells (UniProt Q08722); assay: flow cytometry
Chain of CD47-expressing CHO-K1 cells (Q08722 19-323): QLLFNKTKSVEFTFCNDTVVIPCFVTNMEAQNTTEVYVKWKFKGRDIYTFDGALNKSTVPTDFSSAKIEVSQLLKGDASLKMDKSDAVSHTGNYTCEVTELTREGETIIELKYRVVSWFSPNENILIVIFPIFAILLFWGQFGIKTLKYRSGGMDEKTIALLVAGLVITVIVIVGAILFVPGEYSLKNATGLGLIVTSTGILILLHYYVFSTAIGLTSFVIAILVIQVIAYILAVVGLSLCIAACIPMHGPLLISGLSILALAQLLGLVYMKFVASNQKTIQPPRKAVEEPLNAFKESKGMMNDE

Chain of TIGIT-expressing CHO-K1 cells (Q495A1 22-244): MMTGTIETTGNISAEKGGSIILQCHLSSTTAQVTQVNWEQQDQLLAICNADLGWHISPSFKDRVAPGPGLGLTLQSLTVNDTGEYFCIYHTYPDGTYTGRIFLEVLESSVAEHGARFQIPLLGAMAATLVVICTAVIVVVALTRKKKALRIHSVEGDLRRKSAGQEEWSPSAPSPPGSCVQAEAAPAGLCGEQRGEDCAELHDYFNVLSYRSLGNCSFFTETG

EC50 [1]: 15 pM
EC50 [2]: 0.992 pM
Substance: Human IgG

— patent US20220267475A1
